Test results from US20140187743A1, “SURFACE-ACTIVE COLLAGEN MEMBRANE BY PEPTIDE” (priority 2011, published 2014).
“And” between values parts separate entries of the source, which are not always exact repeats. Equal entries are not always repeated. Where no end group is shown, it is not given here. The star is where a group is joined. FITC = O=C1OC2(c3ccc(O)cc3Oc3cc(O)ccc32)c2ccc(NC(=S)*)cc21

How the values were obtained:
E. coli = assay: Antibacterial test by agar diffusion method, inhibition diameter of peptide-bound collagen membrane; type: cell-based; conditions: for Antibacterial activity (inhibition diameter) of peptide-bound collagen membrane: incubated for 3 days on E. coli plate
Experimental: In another example of the present invention, in order to examine the antibacterial activity of an antibacterial fusion peptide that binds specifically to collagen, a collagen membrane was prepared using each of the peptides of SEQ ID NO: 1, the peptide of SEQ ID NO: 26 and the peptide of SEQ ID NO: 29 in the same manner as described in Example 2. The prepared collagen membrane was washed in PBS for 1 hour and dried in air. To evaluate the antibacterial activity of the peptide, an antibacterial test was performed according to an agar diffusion method. Specifically, E. coli cells were cultured in TSB medium until the absorbance at 620 nm reached 1, and then the cells were harvested and used in the test. The harvested cells were diluted with PBS, and 10^5-10^7 bacterial cells per ml were plated on a TSA plate and incubated at 37° C for 24 hours. On the plate having the incubated bacterial cells thereon, a collagen membrane having each of the peptides of SEQ ID NOS: 1, 26 and 29 bound thereto was placed and incubated for 3 days. Then, the inhibition diameter against the growth of the bacterial cells was measured. […] Using each of the peptides of SEQ ID NOS: 1, 26 and 29, collagen membranes were prepared in the same manner as described in Example 2. Each of the prepared collagen membranes was allowed to stand in 10 ml of PBS for 1 hour and dried in air. To evaluate the antibacterial activity of the peptides, an antibacterial test was performed according to the agar diffusion method. Specifically, E. coli cells were cultured in TSB (tryptic soy broth) medium until the absorbance at 620 nm reached 1, and then the cells were harvested and used in the test. The harvested cells were diluted with PBS, and 10^5-10^7 bacterial cells per ml were plated on a TSA plate and incubated at 37° C. for 24 hours. On the plate having the incubated bacterial cells thereon, a collagen membrane having each of the peptides of SEQ ID NOS: 1, 26 and 29 bound thereto was placed and incubated for 3 days, and then the inhibition diameter against the bacterial cells was inhibited was measured.

[1] = system: circular skull defect of rabbits; assay: In vivo bone regeneration of peptide-bound collagen membrane in circular skull defect; set-up: species or system New Zealand white rabbits; conditions: 8 mm circular skull defect, 4 weeks after transplantation; compared to membranes with SEQ ID NO: 1 or 9
From the text: In still another example of the present invention, in order to examine the in vivo bone regeneration ability of the fusion peptide that binds to the collagen membrane and has the ability to regenerate bone tissue, each of the peptides of SEQ ID NOS: 1, 9 and 24 was bound to the collagen membrane, and then transplanted into the circular skull defect of rabbits, and the bone regeneration ability was examined. Specifically, a circular bone defect having a diameter of 8 mm was formed in the skull of anesthetized rabbits and covered with the collagen membrane, and the periosteum and the skin were doubly sutured. At 4 weeks after the transplantation, the animal was sacrificed, and the collected sample was fixed in a formalin solution. The tissue was embedded to prepare a sample having a thickness of 20 μm. The sample was stained with fuchsin and toluidine blue to prepare a nondemineralized sample. […] Each of the peptides of SEQ ID NOS: 1, 9 and 24, prepared in Example 1, was bound to a collagen membrane according to the method of Example 2, and then transplanted into the circular skull defect of rabbits, and the bone regeneration ability was examined. […]

collagen membrane = assay: Peptide release (elution) test from collagen membrane in PBS, HPLC; type: binding, porcine; conditions: for Release of the peptide from collagen membrane: eluate in PBS at 37° C.
Experimental: In still another example of the present invention, in order to examine the collagen-binding ability of the fusion peptide that binds specifically to collagen, porcine sink-derived collagen was dissolved in 0.1M HCl at a concentration of 1%(w/v), the pH was neutralized, and the collagen solution was concentrated to 4% by evaporating the solvent. To prepare a membrane, the concentrated collagen solution was poured into a […] diameter dish and mixed, and to prepare a three-dimensional scaffold, the collagen solution was poured onto a 24-well plate for cell culture and mixed. Next, 1% glutaraldehyde or 1% glyceraldehyde was added to crosslink the collagen solution, which was then washed with distilled water and freeze-dried. The resulting membrane having a size of 1×1 cm and a thickness of 250 μm was wet with 10 mg of the fusion peptide of SEQ ID NO: 24 in 100 μl of DW, washed with PBS and freeze-dried. The collagen membrane having the peptide bound thereto was added to PBS and subjected to a peptide release teat at 37° C. After 7 days, 10 ml of the elution solvent added was completely removed, after which 10 ml of a fresh elution solvent was added to the collagen membrane which was then eluted at 37° C. for 4 weeks. After completion of the elution, the membrane was collected and the peptide content thereof was measured.
1 g of porcine skin-derived collagen was dissolved in 100 ml of 0.1M HCl at a concentration of 1%(w/v), and then the pH of the collagen solution was neutralized, and the solvent was evaporated to the collagen solution to 4%.
In order to prepare a membrane, 8 ml of the concentrated collagen solution was poured in a […]-diameter dish and mixed, and in order to prepare a three-dimensional scaffold, 1 ml of the collagen solution was poured in a 24-well plate for cell culture and mixed. Then, 1% glutaraldehyde or 1% glyceraldehydes was added to crosslink the collagen solution, and the crosslinked collagen was washed with distilled water and freeze-dried (see FIG. 1).
0.038 g of the prepared membrane having a size of 1×1 cm and a thickness of 250 μm fall was wet with 10 mg of the fusion peptide of SEQ ID NO: 24 in 100 μl of deionized water (DW), allowed to stand at 4° C. for 8 hours, washed with PBS, and freeze-dried. The collagen membrane having the peptide bound thereto was added to 10 ml of PBS and subjected to a peptide release test at 37° C.
After 7 days, 10 ml of the elution solvent added was completely removed, and then 10 ml of a fresh elution solvent was added to the collagen membrane which was then eluted at 37° C. for 4 weeks. After completion of the elution, the membrane was collected and the peptide content thereof was measured.
0.038 g of the membrane having the peptide bound thereto was precisely weighed, and 5 ml of mobile phase solvent A was added thereto, followed by sonication for 1 hour. Next, 5 ml of mobile phase solvent B was added to and mixed with the membrane solution, and then the mixture was centrifuged at 4500 rpm for 30 minutes. 1 ml of the supernatant was taken and filtered through a 0.22 millipore filter to obtain a sample solution.
A peptide standard was dried in a desiccator (silica gel) for 5 hours, and about 10 mg of the dried peptide was dissolved in mobile phase solvent A. 10 ml of the solution was used as a standard solution. […]

[2] = rabbit, in vivo
From the text: In still another example of the present invention, in order to examine the in vivo stability of the fusion peptide that binds to collagen and has the ability to regenerate bone tissue, the peptide of SEQ ID NO: 24 labeled with FITC was bound to the collagen membrane which was then transplanted into a rabbit skull defect. […] Before and at days 1, 3, 7, 14, 21 and 28 after the membrane bound to the peptide of SEQ ID NO: 24 labeled with FITC was transplanted into the rabbit skull defect, the blood was collected and whether the peptide was released into the systemic blood was measured using a fluorometer. […] The peptide of SEQ ID NO: 24 labeled with FITC was bound to a collagen membrane in the same manner as described in Example 2. The collagen membrane was transplanted into the skull defect of a rabbit, and after 4 weeks, the membrane transplanted into the skull defect was observed by confocal microscopy (Olympus, Japan). Before and at days 1, 3, 7, 14, 21 and 28 after 10 mg of the peptide of SEQ ID NO: 24 labeled with FITC was transplanted into the rabbit skull defect, the blood was collected and whether the peptide was released into the systemic blood was measured using a fluorometer.

[3] = target: collagen membrane prepared from porcine skin-derived collagen (porcine); assay: release test in PBS at 37 C, HPLC of the eluate
Chain of collagen membrane prepared from porcine skin-derived collagen (porcine) (P12675 whole entry): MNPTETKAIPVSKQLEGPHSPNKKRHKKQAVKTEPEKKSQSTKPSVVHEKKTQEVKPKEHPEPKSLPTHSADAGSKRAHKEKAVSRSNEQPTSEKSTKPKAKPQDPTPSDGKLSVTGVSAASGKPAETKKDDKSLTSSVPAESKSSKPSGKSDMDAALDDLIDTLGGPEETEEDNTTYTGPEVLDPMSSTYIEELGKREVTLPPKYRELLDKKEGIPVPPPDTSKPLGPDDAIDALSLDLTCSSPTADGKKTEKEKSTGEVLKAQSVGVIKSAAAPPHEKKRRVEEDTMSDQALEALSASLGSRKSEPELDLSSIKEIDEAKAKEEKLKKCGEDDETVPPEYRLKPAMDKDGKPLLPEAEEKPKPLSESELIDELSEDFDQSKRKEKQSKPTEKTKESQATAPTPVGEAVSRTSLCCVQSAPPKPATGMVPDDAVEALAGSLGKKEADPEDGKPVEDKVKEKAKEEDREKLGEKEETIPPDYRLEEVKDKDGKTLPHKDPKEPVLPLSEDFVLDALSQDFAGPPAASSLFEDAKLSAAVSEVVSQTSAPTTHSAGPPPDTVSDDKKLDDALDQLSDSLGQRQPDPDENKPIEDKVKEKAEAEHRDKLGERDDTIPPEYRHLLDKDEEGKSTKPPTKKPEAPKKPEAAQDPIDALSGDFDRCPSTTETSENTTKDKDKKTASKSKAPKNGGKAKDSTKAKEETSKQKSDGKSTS

[4] = target: collagen membrane prepared from porcine skin-derived collagen (porcine); assay: HPLC of peptide extracted from the membrane after 4 weeks of elution in PBS at 37 C
[5] = after washing in PBS for 1 hour

**Q.** For “GKCSTRGRKCCRRKK (hBD3-3) [SEQ ID NO: 26, antibacterial peptide derived from human beta-defensin-3]”, which “Decrease of antibacterial activity after washing” value (E. coli; after washing in PBS for 1 hour versus before washing) is on record?
**A.** The value was “about 50%”.

**Q.** And the “Antibacterial activity (inhibition diameter) of peptide-bound collagen membrane” value (E. coli; before washing)?
**A.** The value was “highest antibacterial activity”.

**Q.** What does the source list for “GLRSKSKKFRRPDIQYPDA (Collagen Binding Peptide) [SEQ ID NO: 1]”?
**A.** Antibacterial activity (inhibition diameter) of peptide-bound collagen membrane (E. coli; [5]): no antibacterial activity; Antibacterial activity (inhibition diameter) of peptide-bound collagen membrane (E. coli; before washing): no antibacterial activity

**Q.** With “GLRSKSKKFRRPDIQYPDAGKCSTRGRKCCRRKK (Collagen Binding Peptide; hBD3-3) [SEQ ID NO: 29]” as the molecule, how does the “Antibacterial activity (inhibition diameter) of peptide-bound collagen membrane” value (E. coli; [5]) read?
**A.** Its value is “maintained its antibacterial activity”.

**Q.** With “GLRSKSKKFRRPDIQYPDARHPLYVDFSDVGWNDWIVA (Collagen Binding Peptide) [SEQ ID NO: 24]” as the molecule, how does the “Bone regeneration ability of the collagen membrane having the peptide bound” value [1] read?
**A.** The value was “increased”.

**Q.** And the “Peak of the peptide in the eluate” value (collagen membrane; 4 week elution test, retention time of 13 minutes, Lot Nos. 1, 2 and 3)?
**A.** The value was “not observed”.

**Q.** And the “Content of the peptide remaining on collagen membrane” value (collagen membrane; after completion of the 4 week elution at 37° C., Lot Nos. 1-3, 10 mg peptide loaded)?
**A.** The value was 9.2 mg and 9.43 mg and 9.68 mg and 9.20 mg.

**Q.** And the “Release of the peptide from collagen membrane” value (“Release of the peptide” for short) (collagen membrane; day 7, Lot Nos. 1-3, 10 mg peptide loaded)?
**A.** The value was 0 mg.

**Q.** What about the “Release of the peptide” value (collagen membrane; day 14, Lot Nos. 1-3, 10 mg peptide loaded) of the same molecule?
**A.** Its value is 0 mg.

**Q.** What about the “Release of the peptide” value (collagen membrane; day 28, Lot Nos. 1-3, 10 mg peptide loaded) of the same molecule?
**A.** The value was 0 mg.

**Q.** With “SEQ ID NO: 24 labeled with FITC: FITC (fluorescein isothiocyanate) bound to the N-terminus of the peptide of SEQ ID NO: 24 ({FITC}-GLRSKSKKFRRPDIQYPDARHPLYVDFSDVGWNDWIVA)” as the molecule, how does the “Spread of the peptide to the surrounding tissue (confocal microscopy)” value [2] read?
**A.** The value was “did not spread to the surrounding tissue”.

B1: fusion peptide of SEQ ID NO: 24 (fusion peptide for bone tissue regeneration that binds specifically to collagen) (peptide)
peptide: GLRSKSKKFRRPDIQYPDARHPLYVDFSDVGWNDWIVA
**Q.** With B1 as the molecule, how does the peptide released from collagen membrane [3] read?
**A.** The peptide released from collagen membrane was 0 mg.

**Q.** What about the content of the peptide remaining on collagen membrane (of 10 mg applied) [4] of the same molecule?
**A.** Its content of the peptide remaining on collagen membrane (of 10 mg applied) is 9.2 mg and 9.43 mg and 9.68 mg.
